The record followed here is patent US20210155676A1 (published 2021).

In this experiment the target is gp120. Put plainly: ELISA; geometric mean over gp120 from 7 HIV strains. Background: ELISA stands for enzyme-linked immunosorbent assay.

B1: PGT121.42 (antibody, V domains shown)
VH: QMQLQESGPGLVKPSETLSLTCSVSGASISDSYWSWIRRSPGKGLEWIGYVHKSGDTNYNPSLKSRVHLSLDTSKNQVSLSLSSVTAADSGKYYCARTLHGRRIYGIVAFNEWFTYFYMDVWGKGTQVTVSS
VL: SDISVAPGETARISCGEKSLGSRAVQWYQHRAGQAPSLIIYNNQDRPSGIPERFSGSPDSPFGTTATLTITSVEAGDEADYYCHIWDSRVPTKWVFGGGTTLTVLG
By EC50 is commonly meant the concentration needed to bring the measured effect to its halfway point. Low values mean a more potent agent, high ones a less potent agent. B1: the EC50 was found to be 1.57 nM.

B2: PGT121.65 (antibody, V domains shown)
VH: QLQLQESGPGLVKPSETLSLTCSVSGASISDAYWSWIRRSPGKGLEWIGYVHKSGDTNYNPSLKSRVHLSLDTSKNQVSLSLTGVTAADSGKYYCARALHGRRIYGIVAFNEWFTYFYMDVWGTGTQVTVSS
VL: SDISVAPGETARISCGEKSLGSRAVQWYQHRAGQAPSLIIYNNQDRPSGIPERFSGSPDSRPGTTATLTITSVEAGDEADYYCHIWDSRVPTKWVFGGGTKLTVLG
Molecule B2 had an EC50 of 2.14 nM.

B3: PGT121.61 (antibody)
heavy: QMQLQESGPGLVKPSETLSLTCSVSGASISDSYWSWIRRSPGKGLEWIGYVHKSGDTNYNPSLKSRVHLSLDTSKNQVSLSLTGVTAADSGKYYCARTLHGRRIYGIVAFNEWFTYFYMDVWGTGTQVTVSSASTKGPSVFPLAPSSKSTSGGTAALGCLVKDYFPEPVTVSWNSGALTSGVHTFPAVLQSSGLYSLSSVVTVPSSSLGTQTYICNVNHKPSNTKVDKKVEPKSCDKTHTCPPCPAPELLAGPDVFLFPPKPKDTLMISRTPEVTCVVVDVSHEDPEVKFNWYVDGVEVHNAKTKPREEQYNSTYRVVSVLTVLHQDWLNGKEYKCKVSNKALPLPEEKTISKAKGQPREPQVYTLPPSREEMTKNQVSLTCLVKGFYPSDIAVEWESNGQPENNYKTTPPVLDSDGSFFLYSKLTVDKSRWQQGNVFSCSVLHEALHSHYTQKSLSLSPGK
light: SDISVAPGETARISCGEKSLGSRAVQWYQHRAGQAPSLIIYNNQDRPSGIPERFSGSPDSRPGTTATLTITSVEAGDEADYYCHIWDSRVPTKWVFGGGTKLTVLGQPKAAPSVTLFPPSSEELQANKATLVCLISDFYPGAVTVAWKADSSPVKAGVETTTPSKQSNNKYAASSYLSLTPEQWKSHRSYSCQVTHEGSTVEKTVAPTECS
On to B3, for which the EC50 turned out to be 1.65 nM.

B4: PGT121.60 (antibody)
heavy: QMQLQESGPGLVKPSETLSLTCSVSGASISDSYWSWIRRSPGKGLEWIGYVHKSGDTNYNPSLKSRVHLSLDTSKNQVSLSLTGVTAADSGKYYCARTLHGRRIYGIVAFNEWFTYFYMDVWGTGTQVTVSSASTKGPSVFPLAPSSKSTSGGTAALGCLVKDYFPEPVTVSWNSGALTSGVHTFPAVLQSSGLYSLSSVVTVPSSSLGTQTYICNVNHKPSNTKVDKKVEPKSCDKTHTCPPCPAPELLAGPDVFLFPPKPKDTLMISRTPEVTCVVVDVSHEDPEVKFNWYVDGVEVHNAKTKPREEQYNSTYRVVSVLTVLHQDWLNGKEYKCKVSNKALPLPEEKTISKAKGQPREPQVYTLPPSREEMTKNQVSLTCLVKGFYPSDIAVEWESNGQPENNYKTTPPVLDSDGSFFLYSKLTVDKSRWQQGNVFSCSVLHEALHSHYTQKSLSLSPGK
light: not shown
B4 returned an EC50 of 1.79 nM.
